Assay results taken from paper PMC10965808, “The alternative coproporphyrinogen III oxidase (CgoN) catalyzes the oxygen-independent conversion of coproporphyrinogen III into coproporphyrin III” (Frontiers in Microbiology, 2024).

T1: YtpQ (CgoN) (Priestia megaterium, UniProt D5DN20)
T1 construct: gene BMD_4814; full length, 270 residues; codon-adapted synthetic gene in pGEX-6P-1, N-terminal GST tag cut off with PreScission protease; E. coli BL21(DE3); calculated 30,781 Da; monomer (35 kDa by GPC)
T1 sequence (D5DN20 1-270): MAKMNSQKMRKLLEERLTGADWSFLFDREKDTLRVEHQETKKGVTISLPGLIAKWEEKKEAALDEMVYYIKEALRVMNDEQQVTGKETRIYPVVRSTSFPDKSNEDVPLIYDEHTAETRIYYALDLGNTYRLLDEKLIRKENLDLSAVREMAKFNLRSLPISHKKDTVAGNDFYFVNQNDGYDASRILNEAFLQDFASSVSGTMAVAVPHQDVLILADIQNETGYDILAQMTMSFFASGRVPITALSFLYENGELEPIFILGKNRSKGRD

B1: YtpQ (CgoN) (Priestia megaterium DSM 319) (protein)
chain: MAKMNSQKMRKLLEERLTGADWSFLFDREKDTLRVEHQETKKGVTISLPGLIAKWEEKKEAALDEMVYYIKEALRVMNDEQQVTGKETRIYPVVRSTSFPDKSNEDVPLIYDEHTAETRIYYALDLGNTYRLLDEKLIRKENLDLSAVREMAKFNLRSLPISHKKDTVAGNDFYFVNQNDGYDASRILNEAFLQDFASSVSGTMAVAVPHQDVLILADIQNETGYDILAQMTMSFFASGRVPITALSFLYENGELEPIFILGKNRSKGRD
notes: full length, 270 residues; codon-adapted synthetic gene in pGEX-6P-1, N-terminal GST tag cut off with PreScission protease; E. coli BL21(DE3); calculated 30,781 Da; monomer (35 kDa by GPC)

Columns and labels:
[1] = biological target: T1, YtpQ (CgoN); test: fluorescence assay, stimulation of activity by added FAD; type: biochemical; conditions: 3 μM FAD; 1 μM enzyme; 10 μM coproporphyrinogen III; anaerobic; pH 7.2; 30°C; no menadione
[2] = substrate: Cc1c2[nH]c(c1CCC(=O)O)Cc1[nH]c(c(CCC(=O)O)c1C)Cc1[nH]c(c(CCC(=O)O)c1C)Cc1[nH]c(c(C)c1CCC(=O)O)C2; test: purified protein; type: biochemical, Priestia megaterium; conditions: anaerobic, 3 μM FAD, 5 μM menadione as electron acceptor, 1 μM enzyme, 1-20 μM substrate, HEPES pH 7.2, 0.02% Tween 80, 30°C

| Molecule | fluorescence assay, stimulation of activity by added FAD [1] | Km [2] [µM] | kcat [2] [s⁻¹] |
| --- | --- | --- | --- |
| Cc1cc2nc3c(=O)[nH]c(=O)nc-3n(C[C@H](O)[C@H](O)[C@H](O)COP(=O)(O)OP(=O)(O)OC[C@H]3O[C@@H](n4cnc5c(N)ncnc54)[C@H](O)[C@@H]3O)c2cc1C [FAD] | FAD was identified as the electron-transferring cofactor of YtpQ |  |  |
| B1 |  | 3.95 | 0.0105 |
